Experimental data reported in the DeepSol protein solubility set.

test: soluble on expression in E. coli; label from the status in PepcDB or PDB records

Sequence | soluble on expression in E. coli
NLYFQGHMVLKLLLELGAERYAEQFAAKCHELGMVMKESAGPGRVPVPVTLQPSMISRGEFGTLCCMQPLWNEAVDNTARNFTFLRDALQETAASDVNFTGKLLNMLQEVYLSGGPFQQLMLGIFRTDYMREGVYDKMLSTTASRWKNVEINTISCSFAGLSPLITEFHQHIAAYLQVLQKARGKEDDDGVENMSWIWGKGNCRLERSVSGDVVPKAIADAVRAWVEQQKFASLRASWEQFQQNEVGSGEIHQLGVLDTAPVVLVVVQENERNTADQYALLMRVLEEHRIRFIFRTLQELHLSLKLHSISPEQPPLAVVDGHYPIAVAYFRSTYVPEDFPTDATWAARLSLERSSAIKCPSIPYHLLTFKKLQQLLCDVDRVLVPVAFCGDSDKAGLLQRHFVPQYSLNPKEVGEEAVEKVIHDVLQRPDQFVLKPQLEGGGNLLSGETMVKALKATKEGDPVTYSKVRCEYVVMSRIQFHVSTGSLLARGDVVQLERNMCSEVGIFGVILSAAKGSSVGTNGSSVLFNTFAGYTVRSKPADADDGGVMAGVAALDSLAVVP | soluble
NRGIEFSGGRNYVVKFDQPVSSEAVRSALSSPLQEKVLVTSIGTEGTEVRISTNYKIQEESEETEAEITDKLYQSLKGFYTQQPTADQFLDNIISSQKVSPSMSSDITRGA | not soluble
NRGVTGGFGITQDITERKKVEEALRISNIYNRSLIEASPDPLVTIGQDGKITDVNNSTETVTGYSRDELIGTDFSDYFTEPERAKKGYQHVFLKGFVKDYPLEIQHKDGRVTQVLYNASVYRDESGEVIGVFAAARD | not soluble
NRLKDSKAKSRVVILLTDGSNNMGDITPRMAADIARTFGIRVYTVGVGTRGEAPFPIQTEFGVRIQNVPVDIDEPTLDGIAEVSGGKYFRAVDNETLNEIYKEIDKLEKTRLMTKSFKAYEEK | not soluble
NSAHQFHNQQEGEHYILAGYPWFKCRARDMFISLPGLTLALEEVDQFEDVMKTAEKAIRSFINDEPAGYKIYEMEHPDVLLWAVWALQQYAKETSREQCRQKYGELLKDIIEFIRQRKHENLFLHENGLLYANGTDKAITWMNSTVNGHPVIPRTGYIVEFNALWYNALRFVADLVREDGNVLLADALDAQAEVTGKSFIEVFRNEYGYLLDYVDGNMMDWSVRPNMIFAVAFDYSPLDRAQKKQVLDIATKELLTPKGLRTLSPKSGGYNPNYVGPQIQRDYAYHQGTAWPWLMGFYMEAYLRIYKMSGLSFIERQLIGLEDELTIHCISSLPELFDGNPPFKGRGAVSFAMNVAEVLRILKLLSKYY | not soluble
NSLDNQVRLLLEDSVPKYNASYFLESKTSEINRRVEALQAVDNKVQLTEQAMQVNEQLASISTVLKSNKMSSEFYQLLESEAGLASLLEKYVDMISTRIDQTRRVDQLMEQINWLHQDIRSELKPVRQEVHWQIERVNDSKEIQNLLVQLSTLQRVIDIESAVYDMAIDVAGASMPEQVDNGMKVIHFRLMDLQESSTTLMNQPTSIAYKQLLQELVVVLSPEGAFDKQLMSLVTLNGDIQKIQEQIALSMEAIHQQIGELVSTADQTFKQVKSETAERVSYGN | not soluble
NSSDYRALFLNDVPMMDARAPVEFSKGAFPGVINLPLMNDIERQKVGTCYKQHGQDAAIQLGHQLVCGQVKDERVEAWVEFARANPNGYLYCFRGGLRSQTVQRWLKDAGVDYPRILGGYKAMRTFLLDTLHEAVTE | not soluble
NTYAPIETLKRLYSEAFRLPDVVGISIGTRIDSVNHEILDFLGEYAREKEVWIEYGIQSIHDRTLEGINRGHDSSEMEYWIKETQNRGIKVCVHLIYGLPGESEEMMLETLDKMIEWQAESIKIHPLYVMAHTALATLYKKGEYTPITLERYAWLIGESMKRIPK | not soluble
NWVTPDGAPGPTGKGGFAAASGRYHLYVSYACPWAHRTLIFREIKGLSAHIPVSAVHPDMLDQGWTFAPEPQGRTGDRLYGLNYAHQVYTRADPTYSGRVTVPILWDSERQTVVSNESSEIIRMFNSAFDGLTGNRDDFWPEALREAIEPVNARIYDTVNN | not soluble
NYGVDFSDIAGQSTSIRALEIAASGGHNIILYGPPGSGKTMLAKRLPTILPPLSYKEALEVSKIYSITGQFDNKNLVFKRPFRAPHHTSSKISLVGGGSKLFPGEISLSHNGVLFLDELLEFKRSSIEVLRQPLEDKVIRFSKSSGNVTYPANFMFISAMNLCPCGNYG | not soluble
PAPTPSSSPVPTLSPEQQEMLQAFSTQSGMNLEWSQKCLQDNNWDYTRSAQAFTHLKAKGEIPEVAFMK | soluble
PDAPRNLQLSLPREAEGVIVGHWAPPIHTHGLIREYIVEYSRSGSKMWASQRAASNFTEIKNLLVNTLYTVRVAAVTSRGIGNWSDSKSITTIKG | soluble
PDGDFVDLAWSEDPHQARHKPRLVVFHGLEGSLHSPYAHGLIHAAMQRGWLGVVMHFRGCSGEPNRNHRIYHSGETEDGTWFLHWLKREFGPAPTAAVGYSLGGNMLGCLLAEEGDRCPLDAAVIVSAPFMLEACSYHMDKGFSRVYQRYLLNLLKANASRKLKAYPGSLPVDLRQLKGMRRIREFDDMITAKIHGFADALDYYRQCSAMPRLSDITKPTLIIHAKDDPFMDHHSIPPQEQLPANVEYQLTEQGGHVGFVSGTLRKPEMWLERRIPDWLNRWLE | not soluble
PDVKFLEGRYCSVEHIDARKHLNDIIDFYWKNAVPSDWTYMFDQPFETAEAVQERLQDYEKSENPYFFAIRDKETDKVLGTFSLMRIDPKNRVLEMGRVIYAPALQKTSAATEAQYLVMNYVFENLGYRRYEWKCDHLNQSSGNAAKRLGFTYEGTFRKHVVYKGRTRDTDWFSVIDQDWPKLKKRFENWLSPKNF | not soluble
PETLVKVKDAEDQLCRTSHRPCRVGYIELDLNSGKILESFRPEERFPMMSTFKVLLCGAVLSRIDAGQEQLGRRIHYSQNDLVKYSPVTEKHLTDGMTVRELCSAAITMSDNTAANLLLTTIGGPKELTAFLHNMGDHVTRLDRWEPELNEAIPNDERDTTMPVAMATTLRKLLTGELLTLASRQQLIDWMEADKVAGPLLRSALPAGWFIADKSGAGRRGSRGIIAALGPDGKPSRIVVIYTTGSRKKTDERNRQIAEIGASLIKHWGLEQKLISEEDLNSAVDHHHHHH | soluble
PFRLHATYDESISRMLDVFEKVDRDIPFNGLPWFFDHAETISPKNIERVRALGGGIAIQDRMAFQGEYFVERYGAKAAEMTPPIQRMLAEGIPVGAGTDATRVSSYNPWTSLYWMVSGRTVGGLELYPQGLSRDTALELYTHGSAWFSSEQGKKGQIKVGQLADLVALSADYFSVEEEAIKWIESLLTVVDGKVVHAAGDFDQLAPPSLPVTPDWSPVAKVPGHWKPGAPLQNQVHQCSGPCAVHAHGHQKARMSNVPVSDFQGFWGAFGCSCFA | not soluble
PKFHQAFAMINDAISDQSTFRLSCNEALIHRITPTNTISICADTDLPSLLNDLRLKQIDLIISPTTIHNPSFISESVFEEPMVVICRQDHPRIAGKIEQERFYSEKHCRFVGDEDFPVSNTEIHQPGLQERDVEMMTTSLSGMMLYVAKHDCLGVLPLSLAQKWQSALNLQVIQTPMLSEPVSYKLIFHKRDESSTSHQRLRAWARDQFATGLNA | not soluble
PKKDWLSYVVSSKARNKIKQQLRLQMESSIGVVKELLNRRLKNRKLPFEEAVFTRVVRRKGFKHLTDFYMEIAADRLDVQEVLELYSHELEEE | not soluble
PLEDWPDDVLASLPRGISRHTVRFVNVDGHVFAIKEIGQKAAYHEYKMLRDLNRLGAPSVQPLAVITGRVDATGQPLTPALVTEHLSFSLPYRAVFSQTSVSRSMRPETATR | not soluble
PLGSDGLPLDPRDWTRADVWKWLINMAVSEGLEVTAELPQKFPMNGKALCLMSLDMYLCRVPVGGKMLYRDFRVRLARAMSR | soluble
PNSKLARFHASSGTTGKPTVVGYTHKDIDNWAESLARALTSVGVGKEDILQVSYGYGLFTGGLGAHYGSEKVGATVLPTSSGNTERQLELMKDLGTTSIACTPSYFLYMIETARKEGINIRNDTKLRKGFFGAEPWSEELKRRIEEESGIKAYDIYGTSELSGPLFTECDEQ | not soluble
PPHVKYIKEKEICDYEPSSDAGHFRWYPKGKLIRDLLSDYVYNLVVENGGMPVETPVMYDLQNNAIREHADKFGERQYRFKQGNKDLMLRFAACFGQFMMKKDMYLLPKHMPLKLYELSTYSFRYEQRGELVGLKRLRAFTMPDMHTVCIDMKQAMEAFEDQLWMGLKTGDDFKTPYAIIFRFTEDFFEENKEWFFGMAKEYKQKYGKDAILEILPGRKHYWVGKVDMAVVDSFGRPIENPTVQIDVESAERFGIVVHDGDKKVQPIILHCSPTGSVERVLCGLLEN | not soluble
PQEVESYVHRIGRTGRAGKEGTAITFITPQEYRRLLQIQKAVKKEIKKEKLPDVKDVIQAKKFRIIDDIGQILIDNDYDKFKKLAKDLLKMEDAENIVASLLKLSYSDVLDESNYNEISPVKMEDTGKTRLFIAMGRKDGMTPK | not soluble
PVDCSVIVVNKQTKDYAESVGRKVRDLGMVVDLIFLNTEVSLSQALEDVSRGGSPFAIVITQQHQIHRSCTVNIMFGTPQEHRNMPQADAMVLVARNYERYKNECREKEREEIARQA | soluble
PVLATQWNNYQQSRAAEAYSQLEKGVPPEVLNKAWEEAQQYNANLGDIDPGDAWTSSDDESSSAYQRYLNYLSALNETEAMGRIVLPSIKSDLPIFHGTSDRVLARGVGHLYGTDLPVGAPGELGEDGVIPPAPPEGRLS | not soluble
PYHGKSKPNKETFVCDLKTSLSNEAIGYIGKANTVGILLSGGMDSRVVAGVVRDLQKNNRSISVVGITWGNANSRDVIYSQRICQQFGWEFVHFPITAETLHKNIQLSAKMGAEVSALHFHAMSDVADLKGVDVILAGSYGDSVGRAEFSGKHVTKLSSVLPSRINNLGLIKDELFQSALESIRNDAQLPAFHNAGDNNLRKYEIEQECHYMRRMLQSCMHVVAEKIPFYQMFTAPSVFGLMWGLEPNIRNNDWYVELLNILPGQLLQIPWARTGILYHLPEGTADEFDKSYHQYGLWLKTELKDEMLNAMNSKSIRELGIFN | not soluble
QDDSRYTKFLTQHHDAKPKGRDDRYCERMMKRRSLTSPCKDVNTFIHGNKSNIKAICGANGSPYRENLRMSKSPFQVTTCKHTGGSPRPPCQYRASAGFRHVVIACENGLPVHFDESFFSL | soluble
QDFPQSLIIDSFLVNDGKTRGLNLHLDRFRTACLEHGYAHHEQLDAFFAEALRSIPATGQWFPRLEATPTELRIALRPAPQLRGTTTLTSVAAVRPTPKYKGLDLDYLAELRCSSTTDDALLVTPAGVIAETTTAAIIAWDGTKWMSMAPARLESVTESLLINSARAQGEMVVTAALTVPEAQKLNLWAVNSLHGVTPVTHIDEVALPSNPQRSALLRGWLSQSEENIAQV | not soluble
QELPTDLSEVFVDFSKEPLASGSVAQTHRARLLSGQEVIIKIQRPGIDDIVKEDIQLLIKLARHIPKHFISMVDVQEVLENLCETLIKELDFKNEAEAMKRFRANNKRVVCLGVPEVY | not soluble
QINPAARKELVIENDIETMHPVFKGFKDKLVPHLRMAAQGATLTGVNVPIGDKVFRWNLSPIRVDGDISGIIVQGQDITTLIEAEKQSNLARREAEKSAQARADFLAKMSHEIRTPINGILGVAQLLKDSVEAEEQKNQIDVLRHSGEHLLAVLNDILDFSKIEQGKFNIQKHPFSFADTMRTLENIYRPICENKGVELVIENQLDGNVEIFTDQVRLNQILFNLVSNAVKFTPSGCVRLHAELEQFYGADNSVLVVEISDTGIGIESDKLDEMFEPFVQEEATTTR | not soluble
